T1: FcγRIIb extracellular domain with C-terminal His tag (human, UniProt P31994 43-217)
T1 construct: extracellular domain; also called FcgRIIb; 2b; not shown: His tag at the C terminus
T1 sequence (looked up): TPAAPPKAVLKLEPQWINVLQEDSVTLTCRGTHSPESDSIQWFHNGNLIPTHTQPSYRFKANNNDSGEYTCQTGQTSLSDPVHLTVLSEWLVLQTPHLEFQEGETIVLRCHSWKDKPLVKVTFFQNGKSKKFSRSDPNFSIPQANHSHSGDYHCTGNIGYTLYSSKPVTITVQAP


Key:
[1] = target: T2, FcγRIIIa extracellular domain with C-terminal His tag (human, UniProt P08637 17-208); test: SPR (Biacore); He/Con_3a divided by He/Con_2b (FcγRIIb)
T2 construct: extracellular domain; also called FcgRIIIa; 3a; not shown: His tag at the C terminus

[2] = target: T1, FcγRIIb extracellular domain with …; test: SPR (Biacore), FcγR as analyte over captured antibody; GpH7-A5/GpH7-B3/GpL16-k0 = 100
Experimental: (§1) The heterodimerized antibodies He Abs in which one of the H chains was introduced with an alteration were assayed for their binding activities to each activating FcγR and inhibitory FcγR according to the method described in Example 4. […] The activating FcγRs in FIGS. 26, 27, 28, and 29 are FcγRIa, FcγRIIa (R), FcγRIIa (H), and FcγRIIIa, respectively.
(§2) Analysis of interaction between objective antibody and the FcγR was carried out using Biacore T100 (GE Healthcare). HBS-EP+ (GE Healthcare) was used as the running buffer, and the measurement temperature was set to 25° C. Chips produced by immobilizing the antigen peptide by the amine coupling method to a Series S Sencor Chip CM5 (GE Healthcare), or alternatively, chips produced by allowing preliminarily biotinylated antigen peptides to interact with and immobilize onto a Series S Sensor Chip SA (certified) (GE Healthcare) were used. Antibodies of interest were captured onto an antigen peptide-immobilized chip, and allowed to interact to each FcγR diluted with running buffer. To regenerate and repeatedly use the chip, the antibodies captured on the chip were washed off by reacting 10 mM glycine-HCl, pH 1.5.

[3] = target: T2, FcγRIIIa extracellular domain with …; test: as above
Experimental: as §1, §2

T2 sequence (P08637 17-208): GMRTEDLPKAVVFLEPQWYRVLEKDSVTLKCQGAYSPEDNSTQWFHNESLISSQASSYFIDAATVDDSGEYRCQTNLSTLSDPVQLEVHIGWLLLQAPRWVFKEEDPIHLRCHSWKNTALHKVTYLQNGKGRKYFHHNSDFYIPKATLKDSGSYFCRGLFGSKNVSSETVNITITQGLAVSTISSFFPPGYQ

Binder | He_3a/2b (IIIa/IIb) [1] | He/Con_2b [2] | He/Con_3a [3]
GpH7-A5/GpH7-B3 variant K326_03V/GpL16-k0 (antibody, human IgG1, kappa, Heterodimerized IgG1 antibody; alteration in the GpH7-B3 chain only; also called He Ab) heavy 1: not shown heavy 2: not shown light: DIVMTQSPLSLPVTPGEPASISCQASESLVHSNRNTYLHWYLQKPGQSPQLLIYKVSNRFSGVPDRFSGSGSGTDFTLKISRVEAEDVGVYYCSQNTHVPPTFGQGTKVEIERTVAAPSVFIFPPSDEQLKSGTASVVCLLNNFYPREAKVQWKVDNALQSGNSQESVTEQDSKDSTYSLSSTLTLSKADYEKHKVYACEVTHQGLSSPVTKSFNRGEC | 0.7 ratio | 175 % of control | 122 % of control
GpH7-A5/GpH7-B3 variant K326_04F/GpL16-k0 (antibody, human IgG1, kappa, Heterodimerized IgG1 antibody; alteration in the GpH7-B3 chain only; also called He Ab) heavy 1: not shown heavy 2: not shown light: DIVMTQSPLSLPVTPGEPASISCQASESLVHSNRNTYLHWYLQKPGQSPQLLIYKVSNRFSGVPDRFSGSGSGTDFTLKISRVEAEDVGVYYCSQNTHVPPTFGQGTKVEIERTVAAPSVFIFPPSDEQLKSGTASVVCLLNNFYPREAKVQWKVDNALQSGNSQESVTEQDSKDSTYSLSSTLTLSKADYEKHKVYACEVTHQGLSSPVTKSFNRGEC | 0.66 ratio | 155 % of control | 103 % of control
GpH7-A5/GpH7-B3 variant K326_09D/GpL16-k0 (antibody, human IgG1, kappa, Heterodimerized IgG1 antibody; alteration in the GpH7-B3 chain only; also called He Ab) heavy 1: not shown heavy 2: not shown light: DIVMTQSPLSLPVTPGEPASISCQASESLVHSNRNTYLHWYLQKPGQSPQLLIYKVSNRFSGVPDRFSGSGSGTDFTLKISRVEAEDVGVYYCSQNTHVPPTFGQGTKVEIERTVAAPSVFIFPPSDEQLKSGTASVVCLLNNFYPREAKVQWKVDNALQSGNSQESVTEQDSKDSTYSLSSTLTLSKADYEKHKVYACEVTHQGLSSPVTKSFNRGEC | 0.69 ratio | 193 % of control | 134 % of control
GpH7-A5/GpH7-B3 variant K326_08L/GpL16-k0 (antibody, human IgG1, kappa, Heterodimerized IgG1 antibody; alteration in the GpH7-B3 chain only; also called He Ab) heavy 1: not shown heavy 2: not shown light: DIVMTQSPLSLPVTPGEPASISCQASESLVHSNRNTYLHWYLQKPGQSPQLLIYKVSNRFSGVPDRFSGSGSGTDFTLKISRVEAEDVGVYYCSQNTHVPPTFGQGTKVEIERTVAAPSVFIFPPSDEQLKSGTASVVCLLNNFYPREAKVQWKVDNALQSGNSQESVTEQDSKDSTYSLSSTLTLSKADYEKHKVYACEVTHQGLSSPVTKSFNRGEC | 0.65 ratio | 177 % of control | 114 % of control
GpH7-A5/GpH7-B3 variant K326_10E/GpL16-k0 (antibody, human IgG1, kappa, Heterodimerized IgG1 antibody; alteration in the GpH7-B3 chain only; also called He Ab) heavy 1: not shown heavy 2: not shown light: DIVMTQSPLSLPVTPGEPASISCQASESLVHSNRNTYLHWYLQKPGQSPQLLIYKVSNRFSGVPDRFSGSGSGTDFTLKISRVEAEDVGVYYCSQNTHVPPTFGQGTKVEIERTVAAPSVFIFPPSDEQLKSGTASVVCLLNNFYPREAKVQWKVDNALQSGNSQESVTEQDSKDSTYSLSSTLTLSKADYEKHKVYACEVTHQGLSSPVTKSFNRGEC | 0.62 ratio | 200 % of control | 124 % of control
GpH7-A5/GpH7-B3 variant K326_15Y/GpL16-k0 (antibody, human IgG1, kappa, Heterodimerized IgG1 antibody; alteration in the GpH7-B3 chain only; also called He Ab) heavy 1: not shown heavy 2: not shown light: DIVMTQSPLSLPVTPGEPASISCQASESLVHSNRNTYLHWYLQKPGQSPQLLIYKVSNRFSGVPDRFSGSGSGTDFTLKISRVEAEDVGVYYCSQNTHVPPTFGQGTKVEIERTVAAPSVFIFPPSDEQLKSGTASVVCLLNNFYPREAKVQWKVDNALQSGNSQESVTEQDSKDSTYSLSSTLTLSKADYEKHKVYACEVTHQGLSSPVTKSFNRGEC | 0.7 ratio | 159 % of control | 112 % of control
GpH7-A5/GpH7-B3 variant K326_06M/GpL16-k0 (antibody, human IgG1, kappa, Heterodimerized IgG1 antibody; alteration in the GpH7-B3 chain only; also called He Ab) heavy 1: not shown heavy 2: not shown light: DIVMTQSPLSLPVTPGEPASISCQASESLVHSNRNTYLHWYLQKPGQSPQLLIYKVSNRFSGVPDRFSGSGSGTDFTLKISRVEAEDVGVYYCSQNTHVPPTFGQGTKVEIERTVAAPSVFIFPPSDEQLKSGTASVVCLLNNFYPREAKVQWKVDNALQSGNSQESVTEQDSKDSTYSLSSTLTLSKADYEKHKVYACEVTHQGLSSPVTKSFNRGEC | 0.7 ratio | 165 % of control | 115 % of control
GpH7-A5/GpH7-B3 variant K326_07I/GpL16-k0 (antibody, human IgG1, kappa, Heterodimerized IgG1 antibody; alteration in the GpH7-B3 chain only; also called He Ab) heavy 1: not shown heavy 2: not shown light: DIVMTQSPLSLPVTPGEPASISCQASESLVHSNRNTYLHWYLQKPGQSPQLLIYKVSNRFSGVPDRFSGSGSGTDFTLKISRVEAEDVGVYYCSQNTHVPPTFGQGTKVEIERTVAAPSVFIFPPSDEQLKSGTASVVCLLNNFYPREAKVQWKVDNALQSGNSQESVTEQDSKDSTYSLSSTLTLSKADYEKHKVYACEVTHQGLSSPVTKSFNRGEC | 0.7 ratio | 199 % of control | 139 % of control

The next lines start with the values.

He_3a/2b (IIIa/IIb) [1] | He/Con_2b [2] | He/Con_3a [3] | Binder
0.57 ratio | 148 % of control | 84.8 % of control | GpH7-A5/GpH7-B3 variant K326_20W/GpL16-k0 (antibody, human IgG1, kappa, Heterodimerized IgG1 antibody; alteration in the GpH7-B3 chain only; also called He Ab) heavy 1: not shown heavy 2: not shown light: DIVMTQSPLSLPVTPGEPASISCQASESLVHSNRNTYLHWYLQKPGQSPQLLIYKVSNRFSGVPDRFSGSGSGTDFTLKISRVEAEDVGVYYCSQNTHVPPTFGQGTKVEIERTVAAPSVFIFPPSDEQLKSGTASVVCLLNNFYPREAKVQWKVDNALQSGNSQESVTEQDSKDSTYSLSSTLTLSKADYEKHKVYACEVTHQGLSSPVTKSFNRGEC
0.56 ratio | 80.2 % of control | 44.9 % of control | GpH7-A5/GpH7-B3 variant L328_01G/GpL16-k0 (antibody, human IgG1, kappa, Heterodimerized IgG1 antibody; alteration in the GpH7-B3 chain only; also called He Ab) heavy 1: not shown heavy 2: not shown light: DIVMTQSPLSLPVTPGEPASISCQASESLVHSNRNTYLHWYLQKPGQSPQLLIYKVSNRFSGVPDRFSGSGSGTDFTLKISRVEAEDVGVYYCSQNTHVPPTFGQGTKVEIERTVAAPSVFIFPPSDEQLKSGTASVVCLLNNFYPREAKVQWKVDNALQSGNSQESVTEQDSKDSTYSLSSTLTLSKADYEKHKVYACEVTHQGLSSPVTKSFNRGEC
0.76 ratio | 139 % of control | 106 % of control | GpH7-A5/GpH7-B3 variant K326_19Q/GpL16-k0 (antibody, human IgG1, kappa, Heterodimerized IgG1 antibody; alteration in the GpH7-B3 chain only; also called He Ab) heavy 1: not shown heavy 2: not shown light: DIVMTQSPLSLPVTPGEPASISCQASESLVHSNRNTYLHWYLQKPGQSPQLLIYKVSNRFSGVPDRFSGSGSGTDFTLKISRVEAEDVGVYYCSQNTHVPPTFGQGTKVEIERTVAAPSVFIFPPSDEQLKSGTASVVCLLNNFYPREAKVQWKVDNALQSGNSQESVTEQDSKDSTYSLSSTLTLSKADYEKHKVYACEVTHQGLSSPVTKSFNRGEC
0.36 ratio | 219 % of control | 79.3 % of control | GpH7-A5/GpH7-B3 variant L328_04F/GpL16-k0 (antibody, human IgG1, kappa, Heterodimerized IgG1 antibody; alteration in the GpH7-B3 chain only; also called He Ab) heavy 1: not shown heavy 2: not shown light: DIVMTQSPLSLPVTPGEPASISCQASESLVHSNRNTYLHWYLQKPGQSPQLLIYKVSNRFSGVPDRFSGSGSGTDFTLKISRVEAEDVGVYYCSQNTHVPPTFGQGTKVEIERTVAAPSVFIFPPSDEQLKSGTASVVCLLNNFYPREAKVQWKVDNALQSGNSQESVTEQDSKDSTYSLSSTLTLSKADYEKHKVYACEVTHQGLSSPVTKSFNRGEC
0.63 ratio | 126 % of control | 78.7 % of control | GpH7-A5/GpH7-B3 variant L328_03V/GpL16-k0 (antibody, human IgG1, kappa, Heterodimerized IgG1 antibody; alteration in the GpH7-B3 chain only; also called He Ab) heavy 1: not shown heavy 2: not shown light: DIVMTQSPLSLPVTPGEPASISCQASESLVHSNRNTYLHWYLQKPGQSPQLLIYKVSNRFSGVPDRFSGSGSGTDFTLKISRVEAEDVGVYYCSQNTHVPPTFGQGTKVEIERTVAAPSVFIFPPSDEQLKSGTASVVCLLNNFYPREAKVQWKVDNALQSGNSQESVTEQDSKDSTYSLSSTLTLSKADYEKHKVYACEVTHQGLSSPVTKSFNRGEC
0.55 ratio | 144 % of control | 79.1 % of control | GpH7-A5/GpH7-B3 variant L328_02A/GpL16-k0 (antibody, human IgG1, kappa, Heterodimerized IgG1 antibody; alteration in the GpH7-B3 chain only; also called He Ab) heavy 1: not shown heavy 2: not shown light: DIVMTQSPLSLPVTPGEPASISCQASESLVHSNRNTYLHWYLQKPGQSPQLLIYKVSNRFSGVPDRFSGSGSGTDFTLKISRVEAEDVGVYYCSQNTHVPPTFGQGTKVEIERTVAAPSVFIFPPSDEQLKSGTASVVCLLNNFYPREAKVQWKVDNALQSGNSQESVTEQDSKDSTYSLSSTLTLSKADYEKHKVYACEVTHQGLSSPVTKSFNRGEC

Reference: patent US20150344570A1 (published 2015)
